Measurements published in patent US20090197801A1.

Molecular target: recombinant erythropoietin receptor (EPOR-Fc)
Test: SPR; Epo 3 peptide ionically bound to the chip, soluble recombinant EPOR-Fc as analyte; three independent experiments

Chain of recombinant erythropoietin receptor (EPOR-Fc) (P19235 25-250): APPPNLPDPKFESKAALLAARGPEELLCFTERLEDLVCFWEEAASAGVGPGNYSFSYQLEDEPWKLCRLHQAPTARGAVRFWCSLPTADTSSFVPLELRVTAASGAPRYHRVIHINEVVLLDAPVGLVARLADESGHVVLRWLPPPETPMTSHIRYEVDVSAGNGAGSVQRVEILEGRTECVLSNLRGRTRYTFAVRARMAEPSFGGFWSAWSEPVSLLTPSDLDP

Question: With QLHVDKAVSGLRSLTTLLRA [Epo3 peptide (Epo-peptide 3)] as the binder, how does the Kd read?
Answer: The Kd was 4.48 nM.
